In patent US20050142135A1, “Agents and methods for modulating interactions between gonadotropin hormones and receptors” (University of Kentucky Research Foundation, priority 2003, published 2005):

Key:
human FSHR [1] = test: ^125I-FSH binding to wild type and mutant FSH receptors on intact stably transfected HEK 293 cells; conditions: intact HEK 293 cells
Method: (§1) Mutant FSHR cDNAs were prepared in the pSELECT vector using the Altered Sites Mutagenesis system (Promega), sequenced on a Beckman CEQ 2000XL capillary sequencer, subcloned into pcDNA3 (Invitrogen), and sequenced again to verify mutation sequences. […] Wild type and mutant receptor constructs were transfected into HEK 293 cells by the calcium phosphate method as previously described. Stable cell lines were established in minimum essential medium containing 10% horse serum and 500 μg/ml of G418. These cells were used for hormone binding, cAMP production. All assays were carried out in duplicate and repeated 4-5 times, and means±S.D. were calculated.
(§2) The Kd values were determined by Scatchard plots. For intracellular cAMP assay, cells were washed twice with Dulbecco's modified Eagle's medium and incubated in the medium containing 0.1 μg/ml isobutylmethylxanthine for 15 mm. Increasing concentrations of FSH were then added and incubation was continued for 45 mm at 37° C. After removing the medium, the cells were rinsed once with fresh medium without isobutylmethylxanthine, lysed in 70% ethanol, freeze-thawed in liquid nitrogen, and scraped.
Each mutant human FSHR cDNA was prepared in a pSELECT vector using the non-PCR based Altered Sites Mutagenesis System (Promega), sequenced on a Beckman CEQ 2000XL capillary sequencer and subcloned into pcDNA3 (Invitrogen) as described. After subcloning pcDNA3 the mutant cDNAs were sequenced again. Plasmids were transfected into human embryonic kidney (HEK) 293 cells by the calcium phosphate method. Stable cell lines were established in minimum essential medium containing 10% horse serum and 500 μg/ml of G-418, and then used for hormone binding and cAMP assay. All assays were carried out in duplicate and repeated 4-6 times. Means and standard variations were calculated.
(§3) Human FSH (the National Hormone and Pituitary Program) was radioiodinated as previously described for radioiodination of hCG. […] The Kd values were determined by Scatchard plots. Truncated exodomain was solubilized in Nonidet P-40 and assayed for hormone binding as described previously. For intracellular cAMP assay, cells were washed twice with Dulbecco's modified Eagle's media and incubated in the media containing isobutylmethylxanthine (0.1 mg/ml) for 15 minutes. Increasing concentrations of FSH were then added and the incubation was continued for 45 minutes at 37° C. After removing the media, the cells were rinsed once with fresh media without isobutylmethylxanthine, lysed in 70% ethanol, freeze-thawed in liquid nitrogen, and scraped. […] Exoloop 3 of FSHR was modeled based on the crystal structure of rhodopsin as a template.

human FSHR [2] = test: FSH dependent intracellular cAMP assay, wild type and mutant FSHR in HEK 293 cells; format: cell-based; conditions: HEK 293 cells
Method: as §1, §2, §3

| Molecule | FSH dependent cAMP induction / EC50 compared with the wild type receptor, in words (human FSHR [2]) | FSH binding / Kd compared with the wild type receptor, in words (human FSHR [1]) | FSH binding / Kd compared with the wild type receptor, in words (human FSHR [1]; listed as FSHR^N10A) | FSH binding / Kd compared with the wild type receptor, in words (human FSHR [1]; listed as FSHR^L14A) |
| --- | --- | --- | --- | --- |
| L^583 F: human FSHR mutant, Phe for L583 (protein) CHHRICHCSNRVFLCQESKVTEIPSDLPRNAIELRFVLTKLRVIQKGAFSGFGDLEKIEISQNDVLEVIEADVFSNLPKLHEIRIEKANNLLYINPEAFQNLPNLQYLLISNTGIKHLPDVHKIHSLQKVLLDIQDNINIHTIERNSFVGLSFESVILWLNKNGIQEIHNCAFNGTQLDELNLSDNNNLEELPNDVFHGASGPVILDISRTRIHSLPSYGLENLKKLRARSTYNLKKLPTLEKLVALMEASLTYPSHCCAFANWRRQISELHPICNKSILRQEVDYMTQARGQRSSLAEDNESSYSRGFDMTYTEFDYDLCNEVVDVTCSPKPDAFNPCEDIMGYNILRVLIWFISILAITGNIIVLVILTTSQYKLTVPRFLMCNLAFADLCIGIYLLLIASVDIHTKSQYHNYAIDWQTGAGCDAAGFFTVFASELSVYTLTAITLERWHTITHAMQLDCKVQLRHAASVMVMGWIFAFAAALFPIFGISSYMKVSICLPMDIDSPLSQLYVMSLLVLNVLAFVVICGCYIHIYLTVRNPNIVSSSSDTRIAKRMAMLIFTDFLCMAPISFFAISASLKVPFITVSKAKILLVLFHPINSCANPFLYAIFTKNFRRDFFILLSKCGCYEMQAQIYRTETSSTVHNTHPRNGHCSSAPRVTSGSTYILVPLSHLAQN | induced significant amounts of cAMP with reasonable EC50 values |  |  |  |
| L^14A: human FSHR with Ala substituted for L14 (protein) CHHRICHCSNRVFACQESKVTEIPSDLPRNAIELRFVLTKLRVIQKGAFSGFGDLEKIEISQNDVLEVIEADVFSNLPKLHEIRIEKANNLLYINPEAFQNLPNLQYLLISNTGIKHLPDVHKIHSLQKVLLDIQDNINIHTIERNSFVGLSFESVILWLNKNGIQEIHNCAFNGTQLDELNLSDNNNLEELPNDVFHGASGPVILDISRTRIHSLPSYGLENLKKLRARSTYNLKKLPTLEKLVALMEASLTYPSHCCAFANWRRQISELHPICNKSILRQEVDYMTQARGQRSSLAEDNESSYSRGFDMTYTEFDYDLCNEVVDVTCSPKPDAFNPCEDIMGYNILRVLIWFISILAITGNIIVLVILTTSQYKLTVPRFLMCNLAFADLCIGIYLLLIASVDIHTKSQYHNYAIDWQTGAGCDAAGFFTVFASELSVYTLTAITLERWHTITHAMQLDCKVQLRHAASVMVMGWIFAFAAALFPIFGISSYMKVSICLPMDIDSPLSQLYVMSLLVLNVLAFVVICGCYIHIYLTVRNPNIVSSSSDTRIAKRMAMLIFTDFLCMAPISFFAISASLKVPLITVSKAKILLVLFHPINSCANPFLYAIFTKNFRRDFFILLSKCGCYEMQAQIYRTETSSTVHNTHPRNGHCSSAPRVTSGSTYILVPLSHLAQN | lower than the wild type value | improved hormone binding |  | lower than the wild type value |

The next lines start with results.

| FSH dependent cAMP induction / EC50 compared with the wild type receptor, in words (human FSHR [2]) | Molecule | FSH binding / Kd compared with the wild type receptor, in words (human FSHR [1]) | FSH binding / Kd compared with the wild type receptor, in words (human FSHR [1]; listed as FSHR^N10A) | FSH binding / Kd compared with the wild type receptor, in words (human FSHR [1]; listed as FSHR^L14A) |
| --- | --- | --- | --- | --- |
| lower than the wild type value | N^10A: human FSHR with Ala substituted for N10 (protein) CHHRICHCSARVFLCQESKVTEIPSDLPRNAIELRFVLTKLRVIQKGAFSGFGDLEKIEISQNDVLEVIEADVFSNLPKLHEIRIEKANNLLYINPEAFQNLPNLQYLLISNTGIKHLPDVHKIHSLQKVLLDIQDNINIHTIERNSFVGLSFESVILWLNKNGIQEIHNCAFNGTQLDELNLSDNNNLEELPNDVFHGASGPVILDISRTRIHSLPSYGLENLKKLRARSTYNLKKLPTLEKLVALMEASLTYPSHCCAFANWRRQISELHPICNKSILRQEVDYMTQARGQRSSLAEDNESSYSRGFDMTYTEFDYDLCNEVVDVTCSPKPDAFNPCEDIMGYNILRVLIWFISILAITGNIIVLVILTTSQYKLTVPRFLMCNLAFADLCIGIYLLLIASVDIHTKSQYHNYAIDWQTGAGCDAAGFFTVFASELSVYTLTAITLERWHTITHAMQLDCKVQLRHAASVMVMGWIFAFAAALFPIFGISSYMKVSICLPMDIDSPLSQLYVMSLLVLNVLAFVVICGCYIHIYLTVRNPNIVSSSSDTRIAKRMAMLIFTDFLCMAPISFFAISASLKVPLITVSKAKILLVLFHPINSCANPFLYAIFTKNFRRDFFILLSKCGCYEMQAQIYRTETSSTVHNTHPRNGHCSSAPRVTSGSTYILVPLSHLAQN | improved hormone binding | lower than the wild type value |  |
| induced a marginal level of cAMP | L^583 Q: human FSHR mutant, Gln for L583 (protein) CHHRICHCSNRVFLCQESKVTEIPSDLPRNAIELRFVLTKLRVIQKGAFSGFGDLEKIEISQNDVLEVIEADVFSNLPKLHEIRIEKANNLLYINPEAFQNLPNLQYLLISNTGIKHLPDVHKIHSLQKVLLDIQDNINIHTIERNSFVGLSFESVILWLNKNGIQEIHNCAFNGTQLDELNLSDNNNLEELPNDVFHGASGPVILDISRTRIHSLPSYGLENLKKLRARSTYNLKKLPTLEKLVALMEASLTYPSHCCAFANWRRQISELHPICNKSILRQEVDYMTQARGQRSSLAEDNESSYSRGFDMTYTEFDYDLCNEVVDVTCSPKPDAFNPCEDIMGYNILRVLIWFISILAITGNIIVLVILTTSQYKLTVPRFLMCNLAFADLCIGIYLLLIASVDIHTKSQYHNYAIDWQTGAGCDAAGFFTVFASELSVYTLTAITLERWHTITHAMQLDCKVQLRHAASVMVMGWIFAFAAALFPIFGISSYMKVSICLPMDIDSPLSQLYVMSLLVLNVLAFVVICGCYIHIYLTVRNPNIVSSSSDTRIAKRMAMLIFTDFLCMAPISFFAISASLKVPQITVSKAKILLVLFHPINSCANPFLYAIFTKNFRRDFFILLSKCGCYEMQAQIYRTETSSTVHNTHPRNGHCSSAPRVTSGSTYILVPLSHLAQN |  |  |  |
| did not produce cAMP | L^583 A: human FSHR exoloop 3 mutant, Ala for L583 (protein) CHHRICHCSNRVFLCQESKVTEIPSDLPRNAIELRFVLTKLRVIQKGAFSGFGDLEKIEISQNDVLEVIEADVFSNLPKLHEIRIEKANNLLYINPEAFQNLPNLQYLLISNTGIKHLPDVHKIHSLQKVLLDIQDNINIHTIERNSFVGLSFESVILWLNKNGIQEIHNCAFNGTQLDELNLSDNNNLEELPNDVFHGASGPVILDISRTRIHSLPSYGLENLKKLRARSTYNLKKLPTLEKLVALMEASLTYPSHCCAFANWRRQISELHPICNKSILRQEVDYMTQARGQRSSLAEDNESSYSRGFDMTYTEFDYDLCNEVVDVTCSPKPDAFNPCEDIMGYNILRVLIWFISILAITGNIIVLVILTTSQYKLTVPRFLMCNLAFADLCIGIYLLLIASVDIHTKSQYHNYAIDWQTGAGCDAAGFFTVFASELSVYTLTAITLERWHTITHAMQLDCKVQLRHAASVMVMGWIFAFAAALFPIFGISSYMKVSICLPMDIDSPLSQLYVMSLLVLNVLAFVVICGCYIHIYLTVRNPNIVSSSSDTRIAKRMAMLIFTDFLCMAPISFFAISASLKVPAITVSKAKILLVLFHPINSCANPFLYAIFTKNFRRDFFILLSKCGCYEMQAQIYRTETSSTVHNTHPRNGHCSSAPRVTSGSTYILVPLSHLAQN |  |  |  |
